From doi:10.1101/2022.08.26.505376 (bioRxiv, 2022)
Positions count from the first letter of the chain named. Read-outs that look alike come from different tables or passages of the source.

B1: KaiA (natural protein)
chain: MLSQIAICIWVESTAILQDCQRALSADRYQLQVCESGEMLLEYAQTHRDQIDCLILVAANPSFRAVVQQLCFEGVVVPAIVVGDRDSEDPDEPAKEQLYHSAELHLGIHQLEQLPYQVDAALAEFLRLAPVETMADHIMLMGANHDPELSSQQRDLAQRLQERLGYLGVYYKRDPDRFLRNLPAYESQKLHQAMQTSYREIVLSYFSPNSNLNQSIDNFVNMAFFADVPVTKVVEIHMELMDEFAKKLRVEGRSEDILLDYRLTLIDVIAHLCEMYRRSIPRET
B2: KaiC (natural protein)
chain: MTSAEMTSPNNNSEHQAIAKMRTMIEGFDDISHGGLPIGRSTLVSGTSGTGKTLFSIQFLYNGIIEFDEPGVFVTFEETPQDIIKNARSFGWDLAKLVDEGKLFILDASPDPEGQEVVGGFDLSALIERINYAIQKYRARRVSIDSVTSVFQQYDASSVVRRELFRLVARLKQIGATTVMTTERIEEYGPIARYGVEEFVSDNVVILRNVLEGERRRRTLEILKLRGTSHMKGEYPFTITDHGINIFPLGAMRLTQRSSNVRVSSGVVRLDEMCGGGFFKDSIILATGATGTGKTLLVSRFVENACANKERAILFAYEESRAQLLRNAYSWGMDFEEMERQNLLKIVCAYPESAGLEDHLQIIKSEINDFKPARIAIDSLSALARGVSNNAFRQFVIGVTGYAKQEEITGLFTNTSDQFMGAHSITDSHISTITDTIILLQYVEIRGEMSRAINVFKMRGSWHDKAIREFMISDKGPDIKDSFRNFERIISGSPTRITVDEKSELSRIVRGVQEKGPES
B3: KaiB (natural protein)
chain: MSPRKTYILKLYVAGNTPNSVRALKTLKNILEVEFQGVYALKVIDVLKNPQLAEEDKILATPTLAKVLPLPVRRIIGDLSDREKVLIGLDLLYGELQDSDDF
B4: KaiCDT (phosphorylation mimic KaiC) (natural protein)
chain: B2 chain with S431D
B5: KaiCAA (dephosphorylation mimic KaiC) (natural protein)
chain: B2 chain with S431A, T432A

How the values were obtained:
Assay in all cases: AUC
AUC [1] = molecular target: the molecule itself
AUC [2] = molecular target: the molecule itself; remark: listed apart in the source
KaiC = molecular target: B2
[3] = molecular target: B4
KaiA = molecular target: B1

Binder | stoichiometry N (AUC [1]) | stoichiometry N (AUC [2]) | also measured
B1 | 2 |  | 
B2 |  | 6 | 
B3 | 4 |  | binding result (KaiC): binds; binding result [3]: binds
B4 |  |  | binding result (AUC [1]): binds
B5 |  | 6 | binding result (KaiA): binds
